The target of the assay is T1, human CD137 ECD-mIgG2a (human).
T1 construct: ECD 24-183 of huCD137 fused to mouse IgG2a Fc; also called huCD137-mIgG2a; huCD137
Put plainly: SPR, A-CEAxCD137 format.

Data on five molecules can be found in US20240190989A1 (BEIGENE SWITZERLAND, published 2024).

T1 sequence (chain, as listed by the source limits assumed): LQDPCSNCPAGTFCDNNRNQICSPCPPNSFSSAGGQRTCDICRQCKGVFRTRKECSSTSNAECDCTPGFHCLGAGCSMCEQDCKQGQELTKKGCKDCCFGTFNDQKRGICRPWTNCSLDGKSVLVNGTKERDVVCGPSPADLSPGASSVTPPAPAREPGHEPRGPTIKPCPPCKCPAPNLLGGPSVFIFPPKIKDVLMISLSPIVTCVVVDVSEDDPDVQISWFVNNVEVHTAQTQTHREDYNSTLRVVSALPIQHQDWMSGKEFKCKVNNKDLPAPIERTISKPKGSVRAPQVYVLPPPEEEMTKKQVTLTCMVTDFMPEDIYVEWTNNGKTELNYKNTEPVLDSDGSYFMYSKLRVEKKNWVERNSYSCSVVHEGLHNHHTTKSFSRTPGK

B1: Format A BGA-5385 (bispecific antibody, human IgG1, kappa)
heavy: QVQLVQSGAEVKKPGASVKVSCKASGYIFTSYYLHWVRQAPGQGLEWIGYINPQTGKTSYAQKFQGRVTMTRDTSTSTVYMELSSLRSEDTAVYYCAREYGNYNYPLDYWGQGTLVTVSSASTKGPSVFPLAPSSKSTSGGTAALGCLVKDYFPEPVTVSWNSGALTSGVHTFPAVLQSSGLYSLSSVVTVPSSSLGTQTYICNVNHKPSNTKVDKKVEPKSCDKTHTCPPCPAPPAAGPSVFLFPPKPKDTLMISRTPEVTCVVVDVSHEDPEVKFNWYVDGVEVHNAKTKPREEQYNSTYRVVSVLTVLHQDWLNGKEYKCKVSNKALAAPIEKTISKAKGQPREPQVYTLPPSREEMTKNQVSLTCLVKGFYPSDIAVEWESNGQPENNYKTTPPVLDSDGSFFLYSKLTVDKSRWQQGNVFSCSVMHEALHNHYTQKSLSLSPGKGGGGSEVQLLESGGGLVQPGGSLRLSCAASGFTLSAEDVGWVRQAPGKGLEWVSAILDHGGSTYYAESVKGRFTISRDNAKNTLYLQMSSLRAEDTAVYYCARVIYHAGGGVTFDTRGQGTQVTVSS
light: DIQMTQSPSSLSASVGDRVTITCRASENQYGYLAWYQQKPGKVPKLLIYNYKNLVEGVPSRFSGSGSGTDFTLTISSLQPEDVATYYCQHHLGTPYTFGQGTKVEIKRTVAAPSVFIFPPSDEQLKSGTASVVCLLNNFYPREAKVQWKVDNALQSGNSQESVTEQDSKDSTYSLSSTLTLSKADYEKHKVYACEVTHQGLSSPVTKSFNRGEC
As to B1, the dissociation constant Kd (in general, the free concentration of one partner at which half of the binding sites on the other are occupied at equilibrium, for simple one-to-one binding) stood at 154 nM.

B2: Format A BGA-7746 (bispecific antibody, human IgG1, kappa)
heavy: QVQLVQSGAEVKKPGASVKVSCKASGYIFTSYYLHWVRQAPGQGLEWIGYINPQTGKTSYAQKFQGRVTMTRDTSTSTVYMELSSLRSEDTAVYYCAREYGNYNYPLDYWGQGTLVTVSSASTKGPSVFPLAPSSKSTSGGTAALGCLVKDYFPEPVTVSWNSGALTSGVHTFPAVLQSSGLYSLSSVVTVPSSSLGTQTYICNVNHKPSNTKVDKKVEPKSCDKTHTCPPCPAPPAAGPSVFLFPPKPKDTLMISRTPEVTCVVVDVSHEDPEVKFNWYVDGVEVHNAKTKPREEQYNSTYRVVSVLTVLHQDWLNGKEYKCKVSNKALAAPIEKTISKAKGQPREPQVYTLPPSREEMTKNQVSLTCLVKGFYPSDIAVEWESNGQPENNYKTTPPVLDSDGSFFLYSKLTVDKSRWQQGNVFSCSVMHEALHNHYTQKSLSLSPGKGGGGSEVQLLESGGGLVQPGGSLRLSCAASGFTVSAEDVGWVRQAPGKGLEWVSAILDFGGSTYYAESVKGRFTISRDNAKNTLYLQMSSLRAEDTAVYYCARVVYHAGGGVTFDTRGQGTQVTVSS
light: DIQMTQSPSSLSASVGDRVTITCRASENQYGYLAWYQQKPGKVPKLLIYNYKNLVEGVPSRFSGSGSGTDFTLTISSLQPEDVATYYCQHHLGTPYTFGQGTKVEIKRTVAAPSVFIFPPSDEQLKSGTASVVCLLNNFYPREAKVQWKVDNALQSGNSQESVTEQDSKDSTYSLSSTLTLSKADYEKHKVYACEVTHQGLSSPVTKSFNRGEC
B2 gave a Kd of 245 nM.

B3: Format A BGA-8425 (bispecific antibody, human IgG1, kappa)
heavy: QVQLVQSGAEVKKPGASVKVSCKASGYIFTSYYLHWVRQAPGQGLEWIGYINPQTGKTSYAQKFQGRVTMTRDTSTSTVYMELSSLRSEDTAVYYCAREYGNYNYPLDYWGQGTLVTVSSASTKGPSVFPLAPSSKSTSGGTAALGCLVKDYFPEPVTVSWNSGALTSGVHTFPAVLQSSGLYSLSSVVTVPSSSLGTQTYICNVNHKPSNTKVDKKVEPKSCDKTHTCPPCPAPPAAGPSVFLFPPKPKDTLMISRTPEVTCVVVDVSHEDPEVKFNWYVDGVEVHNAKTKPREEQYNSTYRVVSVLTVLHQDWLNGKEYKCKVSNKALAAPIEKTISKAKGQPREPQVYTLPPSREEMTKNQVSLTCLVKGFYPSDIAVEWESNGQPENNYKTTPPVLDSDGSFFLYSKLTVDKSRWQQGNVFSCSVMHEALHNHYTQKSLSLSPGKGGGGSEVQLLESGGGLVQPGGSLRLSCAASGFTLSAEDVGWVRQAPGKGLEWVSAILDSGGSTYYAESVKGRFTISRDNAKNTLYLQMSSLRAEDTAVYYCARVVYHAGGGVTYDYRGQGTQVTVSS
light: DIQMTQSPSSLSASVGDRVTITCRASENQYGYLAWYQQKPGKVPKLLIYNYKNLVEGVPSRFSGSGSGTDFTLTISSLQPEDVATYYCQHHLGTPYTFGQGTKVEIKRTVAAPSVFIFPPSDEQLKSGTASVVCLLNNFYPREAKVQWKVDNALQSGNSQESVTEQDSKDSTYSLSSTLTLSKADYEKHKVYACEVTHQGLSSPVTKSFNRGEC
B3 returned a Kd of 189 nM.

B4: Format A BGA-9442 (bispecific antibody, human IgG1, kappa)
heavy: QVQLVQSGAEVKKPGASVKVSCKASGYIFTSYYLHWVRQAPGQGLEWIGYINPQTGKTSYAQKFQGRVTMTRDTSTSTVYMELSSLRSEDTAVYYCAREYGNYNYPLDYWGQGTLVTVSSASTKGPSVFPLAPSSKSTSGGTAALGCLVKDYFPEPVTVSWNSGALTSGVHTFPAVLQSSGLYSLSSVVTVPSSSLGTQTYICNVNHKPSNTKVDKKVEPKSCDKTHTCPPCPAPPAAGPSVFLFPPKPKDTLMISRTPEVTCVVVDVSHEDPEVKFNWYVDGVEVHNAKTKPREEQYNSTYRVVSVLTVLHQDWLNGKEYKCKVSNKALAAPIEKTISKAKGQPREPQVYTLPPSREEMTKNQVSLTCLVKGFYPSDIAVEWESNGQPENNYKTTPPVLDSDGSFFLYSKLTVDKSRWQQGNVFSCSVMHEALHNHYTQKSLSLSPGKGGGGSEVQLLESGGGLVQPGGSLRLSCAASGFTISAEDVGWVRQAPGKGLEWVSAILDSGGSTYYAESVKGRFTISRDNAKNTLYLQMSSLRAEDTAVYYCARYVYHAGGGVTFDLRGQGTQVTVSS
light: DIQMTQSPSSLSASVGDRVTITCRASENQYGYLAWYQQKPGKVPKLLIYNYKNLVEGVPSRFSGSGSGTDFTLTISSLQPEDVATYYCQHHLGTPYTFGQGTKVEIKRTVAAPSVFIFPPSDEQLKSGTASVVCLLNNFYPREAKVQWKVDNALQSGNSQESVTEQDSKDSTYSLSSTLTLSKADYEKHKVYACEVTHQGLSSPVTKSFNRGEC
In turn, B4 registered a Kd of 164 nM.

B5: Format A BGA-7916 (bispecific antibody, human IgG1, kappa)
heavy: QVQLVQSGAEVKKPGASVKVSCKASGYIFTSYYLHWVRQAPGQGLEWIGYINPQTGKTSYAQKFQGRVTMTRDTSTSTVYMELSSLRSEDTAVYYCAREYGNYNYPLDYWGQGTLVTVSSASTKGPSVFPLAPSSKSTSGGTAALGCLVKDYFPEPVTVSWNSGALTSGVHTFPAVLQSSGLYSLSSVVTVPSSSLGTQTYICNVNHKPSNTKVDKKVEPKSCDKTHTCPPCPAPPAAGPSVFLFPPKPKDTLMISRTPEVTCVVVDVSHEDPEVKFNWYVDGVEVHNAKTKPREEQYNSTYRVVSVLTVLHQDWLNGKEYKCKVSNKALAAPIEKTISKAKGQPREPQVYTLPPSREEMTKNQVSLTCLVKGFYPSDIAVEWESNGQPENNYKTTPPVLDSDGSFFLYSKLTVDKSRWQQGNVFSCSVMHEALHNHYTQKSLSLSPGKGGGGSEVQLLESGGGLVQPGGSLRLSCAASGFTVSAEDVGWVRQAPGKGLEWVSAILDSGGSTYYAESVKGRFTISRDNAKNTLYLQMSSLRAEDTAVYYCARVVYHAGGGVTYDYRGQGTQVTVSS
light: DIQMTQSPSSLSASVGDRVTITCRASENQYGYLAWYQQKPGKVPKLLIYNYKNLVEGVPSRFSGSGSGTDFTLTISSLQPEDVATYYCQHHLGTPYTFGQGTKVEIKRTVAAPSVFIFPPSDEQLKSGTASVVCLLNNFYPREAKVQWKVDNALQSGNSQESVTEQDSKDSTYSLSSTLTLSKADYEKHKVYACEVTHQGLSSPVTKSFNRGEC
For the molecule B5, binding was characterised by a dissociation constant (Kd) of 203 nM.
